# According to patent US20150366985A1:
# Target: protein A found on S. aureus (Staphylococcus aureus) (UniProt P02976)
# Assay: FACS, Alexa-488 labeled antibodies at 0.08-50 ug/mL on MRSA isolated from infected mouse kidneys; low level binding attributed by the filing to protein A
# Sequence of protein A found on S. aureus (Staphylococcus aureus) (P02976 37-485): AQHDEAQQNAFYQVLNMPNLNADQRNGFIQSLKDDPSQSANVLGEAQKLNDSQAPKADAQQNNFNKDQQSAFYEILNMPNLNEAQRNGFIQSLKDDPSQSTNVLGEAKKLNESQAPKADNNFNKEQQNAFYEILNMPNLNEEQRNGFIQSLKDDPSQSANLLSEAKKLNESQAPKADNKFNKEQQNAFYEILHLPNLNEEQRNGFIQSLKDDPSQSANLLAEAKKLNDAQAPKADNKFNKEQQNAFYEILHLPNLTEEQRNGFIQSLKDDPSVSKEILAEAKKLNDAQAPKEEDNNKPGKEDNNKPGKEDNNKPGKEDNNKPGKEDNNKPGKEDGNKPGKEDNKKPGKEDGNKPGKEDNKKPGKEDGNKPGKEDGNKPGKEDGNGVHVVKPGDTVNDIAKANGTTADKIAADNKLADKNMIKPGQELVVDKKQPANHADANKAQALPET
substance,measurement,value
gD antibody (negative control human IgG1 that does not recognize S. aureus),fold lower binding than the S4497 antibody (fold lower than S4497 antibody),30
